Measured values from US20200024330A1.

Columns and labels:
Assay in all cases: cell-based or functional assay
[1] = molecular target: HIV-1 Env of isolate MGRM-G-013 (subtype G) (HIV-1)
[2] = molecular target: HIV-1 Env of isolate MGRM-C-004 (pseudovirus) (HIV-1 isolate MGRM-C-004, subtype C)
[3] = molecular target: HIV-1 Env of isolate MGRM-C-020 (pseudovirus) (HIV-1 isolate MGRM-C-020, subtype C)
[4] = molecular target: HIV-1 JR-CSF Env F468A (HIV-1 (isolate JR-CSF)) (UniProt P20871)
[5] = molecular target: HIV-1 Env of isolate MG RM-D-004 (subtype D) (HIV-1)
[6] = molecular target: HIV-1 Env of isolate MG RM-D-021 (subtype D) (HIV-1)
[7] = molecular target: HIV-1 Env of isolate MG RM-AG-002 (HIV-1)
[8] = molecular target: HIV-1 JR-CSF Env R480A (HIV-1 (isolate JR-CSF)) (UniProt P20871)
[9] = molecular target: HIV-1 MGRM-Chronic-B-024 Env (pseudovirus) (HIV-1)
[10] = molecular target: HIV-1 Env of isolate MG RM-D-019 (subtype D) (HIV-1)
[11] = molecular target: HIV-1 MGRM-Chronic-B-008 Env (pseudovirus) (HIV-1)
[12] = molecular target: HIV-1 APV6 envelope glycoprotein (Env) on pseudovirus (HIV-1)
[13] = molecular target: HIV-1 SC422661.8 Env (pseudovirus) (HIV-1)
[14] = molecular target: HIV-1 JR-CSF Env N478A (HIV-1 (isolate JR-CSF)) (UniProt P20871)
[15] = molecular target: HIV-1 MGRM-Chronic-B-020 Env (pseudovirus) (HIV-1)
[16] = molecular target: HIV-1 MGRM-Chronic-B-001 Env (pseudovirus) (HIV-1)
[17] = molecular target: HIV-1 Env of isolate 93UG077 (HIV-1)
[18] = molecular target: HIV-1 Env of isolate 92WR009 (HIV-1)
[19] = molecular target: HIV-1 Env of isolate MGRM-D-019 (HIV-1)
[20] = molecular target: HIV-1 Env of isolate TRJ04551.58 (HIV-1)
[21] = molecular target: HIV-1 Env of isolate MGRM-D-011 (HIV-1)
[22] = molecular target: HIV-1 Env of isolate MGRM-C-020 (HIV-1)
[23] = molecular target: HIV-1 Env of isolate MGRM-C-014 (HIV-1)
[24] = molecular target: HIV-1 Env of isolate MGRM-D-029 (subtype D), on pseudovirus (HIV-1)
[25] = molecular target: HIV-1 Env of isolate MGRM-F1-017 (subtype F), on pseudovirus (HIV-1)
[26] = molecular target: HIV-1 Env of isolate MGRM-AG-003 (CRF_AG), on pseudovirus (HIV-1)
[27] = molecular target: HIV-1 Env of isolate MGRM-F1-023 (subtype F), on pseudovirus (HIV-1)
[28] = molecular target: HIV-1 Env of isolate MGRM-C-010 (HIV-1)
[29] = molecular target: HIV-1 Env of isolate MGRM-D-003 (HIV-1)
[30] = molecular target: HIV-1 Env of isolate MGRM-F1-018 (subtype F), on pseudovirus (HIV-1)
[31] = molecular target: HIV-1 Env of isolate MGRM-A-012 (clade A), on pseudovirus (HIV-1)
[32] = molecular target: HIV-1 Env of isolate 92UG024 (HIV-1)
[33] = molecular target: HIV-1 Env of isolate 93TH305 (pseudovirus) (HIV-1 isolate 93TH305, subtype B)
[34] = molecular target: HIV-1 Env of isolate 92BR020 (pseudovirus) (HIV-1 isolate 92BR020, subtype B)
[35] = molecular target: HIV-1 Env of isolate MGRM-A-011 (clade A), on pseudovirus (HIV-1)

Sequence of 5329_C19 (PGT-136) (antibody) (VH): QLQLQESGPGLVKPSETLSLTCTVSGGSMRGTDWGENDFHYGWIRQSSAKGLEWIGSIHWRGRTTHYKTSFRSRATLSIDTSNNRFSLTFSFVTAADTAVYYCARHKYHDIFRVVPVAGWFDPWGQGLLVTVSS
Sequence of 5329_C19 (PGT-136) (antibody) (VL): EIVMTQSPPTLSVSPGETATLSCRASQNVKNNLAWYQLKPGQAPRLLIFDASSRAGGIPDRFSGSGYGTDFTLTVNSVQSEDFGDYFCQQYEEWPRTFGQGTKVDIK
Sequence of PGT-143 (4980_N08) (antibody) (VH): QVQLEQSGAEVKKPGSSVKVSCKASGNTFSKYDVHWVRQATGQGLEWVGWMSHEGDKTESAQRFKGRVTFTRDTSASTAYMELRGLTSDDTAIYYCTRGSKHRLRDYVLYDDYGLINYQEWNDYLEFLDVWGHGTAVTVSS
Sequence of PGT-143 (4980_N08) (antibody) (VL): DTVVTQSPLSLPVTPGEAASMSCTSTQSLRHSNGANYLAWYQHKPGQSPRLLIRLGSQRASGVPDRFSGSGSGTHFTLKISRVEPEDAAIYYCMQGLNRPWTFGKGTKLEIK
Sequence of PGT-141 (4964_G22; 4993_K13) (antibody) (VH): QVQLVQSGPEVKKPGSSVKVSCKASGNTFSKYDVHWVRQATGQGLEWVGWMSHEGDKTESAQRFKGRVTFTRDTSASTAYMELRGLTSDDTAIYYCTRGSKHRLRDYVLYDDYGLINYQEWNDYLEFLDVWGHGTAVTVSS
Sequence of PGT-141 (4964_G22; 4993_K13) (antibody) (VL): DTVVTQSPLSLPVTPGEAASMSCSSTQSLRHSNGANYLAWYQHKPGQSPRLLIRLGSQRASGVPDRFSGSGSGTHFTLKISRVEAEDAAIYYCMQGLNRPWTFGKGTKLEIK
Sequence of PGT-144 (4970_K22) (antibody) (VH): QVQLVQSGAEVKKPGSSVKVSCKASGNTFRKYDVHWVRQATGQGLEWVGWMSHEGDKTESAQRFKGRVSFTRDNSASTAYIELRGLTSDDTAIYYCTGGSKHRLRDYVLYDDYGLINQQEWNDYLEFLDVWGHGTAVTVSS
Sequence of PGT-144 (4970_K22) (antibody) (VL): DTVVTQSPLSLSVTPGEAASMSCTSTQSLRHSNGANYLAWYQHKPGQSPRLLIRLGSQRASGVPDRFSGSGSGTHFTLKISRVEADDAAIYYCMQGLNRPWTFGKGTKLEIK

PGT-144 (4970_K22) (antibody)
neutralization IC50 [1]: > 50 µg/mL

PGT-143 (4980_N08) (antibody)
neutralization IC50 [1]: > 50 µg/mL

5123_A06 (PGT-125) (antibody)
IC50 (µg/mL) neutralization [2]: 1.82 µg/mL | IC50 (µg/mL) neutralization [3]: > 50 µg/mL | Fold IC50 increase relative to wild-type [4]: 1 fold | IC50 (µg/mL), pseudovirus neutralization [5]: 0.371 µg/mL | IC50 (µg/mL), pseudovirus neutralization [6]: 0.015 µg/mL | neutralization IC50 [7]: > 50 µg/mL | Fold IC50 increase relative to wild-type [8]: 2.1 fold | IC50, pseudovirus neutralization [9]: > 50 µg/mL | IC50 (µg/mL), pseudovirus neutralization [10]: 0.049 µg/mL | IC50, pseudovirus neutralization [11]: > 50 µg/mL | IC50 (ug/ml), neutralizing activity [12]: 0.0359 µg/mL | neutralization IC50 [12]: 0.0359 µg/mL | neutralization IC80 [12]: 0.133 µg/mL | neutralization IC90 [12]: 0.288 µg/mL | neutralization IC95 [12]: 0.597 µg/mL | IC50, pseudovirus neutralization [13]: 30.1 µg/mL | Fold IC50 increase relative to wild-type [14]: 1.5 fold | IC50, pseudovirus neutralization [15]: 0.087 µg/mL | IC50, pseudovirus neutralization [16]: > 50 µg/mL

PGT-122 (antibody)
IC50 (µg/mL), pseudovirus neutralization [17]: 0.084 µg/mL | IC50 (µg/mL), pseudovirus neutralization [18]: 42.4 µg/mL

VRC01 (antibody)
IC50, pseudovirus neutralization [19]: 0.119 µg/mL | neutralization IC50 [20]: 0.06 µg/mL | IC50, pseudovirus neutralization [21]: 0.075 µg/mL | neutralization IC50 [1]: 0.553 µg/mL

5141_B17 (PGT-126) (antibody)
IC50 (µg/mL) neutralization [2]: 0.033 µg/mL | IC50 (µg/mL) neutralization [3]: > 50 µg/mL | Fold IC50 increase relative to wild-type [4]: 0.7 fold | IC50 (µg/mL), pseudovirus neutralization [5]: > 50 µg/mL | IC50 (µg/mL), pseudovirus neutralization [6]: 0.047 µg/mL | neutralization IC50 [7]: > 50 µg/mL | Fold IC50 increase relative to wild-type [8]: 1.9 fold | IC50, pseudovirus neutralization [9]: > 50 µg/mL | IC50 (µg/mL), pseudovirus neutralization [10]: > 50 µg/mL | IC50, pseudovirus neutralization [11]: 5.89 µg/mL | IC50 (ug/ml), neutralizing activity [12]: 0.0249 µg/mL | IC50, pseudovirus neutralization [13]: 0.119 µg/mL | Fold IC50 increase relative to wild-type [14]: 1 fold | IC50, pseudovirus neutralization [15]: 0.021 µg/mL | IC50, pseudovirus neutralization [16]: > 50 µg/mL

5329_C19 (PGT-136) (antibody)
IC50 [22]: > 50 µg/mL | IC50 [23]: > 50 µg/mL | IC50, pseudovirus neutralization [24]: > 50 µg/mL | IC50 [19]: > 50 µg/mL | IC50, pseudovirus neutralization [25]: > 50 µg/mL | IC50 [20]: > 50 µg/mL | IC50, single-round pseudovirus neutralization [26]: > 50 µg/mL | neutralization IC50 [17]: > 50 µg/mL | IC50, pseudovirus neutralization [27]: > 50 µg/mL | IC50 [28]: > 50 µg/mL | IC50 [29]: > 50 µg/mL | neutralization IC50 [18]: > 50 µg/mL | IC50, pseudovirus neutralization [30]: > 50 µg/mL | IC50, single-round pseudovirus neutralization [31]: > 50 µg/mL | IC50 [21]: > 50 µg/mL | IC50 [32]: 0.052 µg/mL | IC50 (µg/mL) neutralization [33]: 20.2 µg/mL | IC50 (µg/mL) neutralization [34]: 8.61 µg/mL | IC50, single-round pseudovirus neutralization [35]: > 50 µg/mL

PGT-141 (4964_G22; 4993_K13) (antibody)
neutralization IC50 [1]: > 50 µg/mL
